Results taken from patent US20250223354A1 (BIOTHEUS, published 2025).

Assays:
[1] = target: T1, mouse PVRIG overexpressed on CHO cells (mouse, UniProt A0A1B0GS01 1-234); assay: flow cytometry, CHO-muPVRIG cells
T1 construct: also called CHO-muPVRIG cells
T1 sequence: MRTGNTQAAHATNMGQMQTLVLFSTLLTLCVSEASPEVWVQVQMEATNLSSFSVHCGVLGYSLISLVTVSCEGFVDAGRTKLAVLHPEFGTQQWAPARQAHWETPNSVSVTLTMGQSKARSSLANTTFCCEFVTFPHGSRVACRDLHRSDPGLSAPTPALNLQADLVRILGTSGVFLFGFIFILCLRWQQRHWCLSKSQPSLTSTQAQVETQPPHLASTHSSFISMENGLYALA
Experimental: (§1) The overexpressing cells were expanded and adjusted to an appropriate cell density, and added to a 96-well flow cytometry plate. After centrifugation, the cells were added with a gradiently diluted sample to be tested, and incubated at 4° C. for 30 minutes. The cells were washed twice with PBS, and added with a fluorescent secondary antibody correspondingly diluted to an appropriate concentration, then incubated at 4° C. for 30 minutes, and washed twice with PBS. Cells were resuspended with PBS, and detected on a CytoFlex flow cytometer, and the corresponding MFI was calculated. Graphpad software was used for graphical analysis to obtain EC₅₀ values.

[2] = target: T2, human PVRIG expressed on cells (human, UniProt Q6DKI7 41-326); assay: flow cytometry, CHO-huPVRIG cells
T2 construct: whole, on cells; cDNA encoding human PVRIG in pCHO1.0 for CHO cells; also called CHO-huPVRIG cells
T2 sequence (looked up): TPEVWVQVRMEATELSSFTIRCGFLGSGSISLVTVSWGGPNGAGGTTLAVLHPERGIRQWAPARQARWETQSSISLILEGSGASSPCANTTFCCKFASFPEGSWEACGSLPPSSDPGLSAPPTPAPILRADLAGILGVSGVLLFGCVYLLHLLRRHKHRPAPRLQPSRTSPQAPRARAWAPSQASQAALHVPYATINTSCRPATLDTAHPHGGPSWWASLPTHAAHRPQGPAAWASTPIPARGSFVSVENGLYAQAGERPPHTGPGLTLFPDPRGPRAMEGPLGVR
Experimental: as §1

[3] = target: T3, cynomolgus PVRIG overexpressed on CHO cells (cynomolgus, UniProt A0A2K5WVV8 1-322); assay: flow cytometry, CHO-cynoPVRIG cells
T3 construct: whole, on cells; also called CHO-cynoPVRIG cells
T3 sequence: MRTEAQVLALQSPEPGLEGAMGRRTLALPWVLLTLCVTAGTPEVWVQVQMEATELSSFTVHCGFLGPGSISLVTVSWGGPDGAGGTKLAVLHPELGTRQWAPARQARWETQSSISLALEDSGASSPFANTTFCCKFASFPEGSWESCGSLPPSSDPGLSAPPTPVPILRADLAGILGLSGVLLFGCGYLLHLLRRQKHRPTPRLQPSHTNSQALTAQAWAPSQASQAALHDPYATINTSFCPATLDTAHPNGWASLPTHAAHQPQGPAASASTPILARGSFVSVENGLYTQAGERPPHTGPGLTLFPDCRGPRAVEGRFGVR
Experimental: as §1

[4] = target: Biotin-labeled mouse PVRIG protein with Mouse IgG2a Fc tag (mouse); assay: competition ELISA: biotin mouse PVRIG-mouse IgG2a Fc binding to coated mouse CD112-his
Experimental: The coating solution in the ELISA plate was discarded, and the ELISA plate was washed three times with 1×PBST and was blocked with 5% BSA/PBS at 200 μL/well for 2 hours at room temperature. […] The SA-HRP dilution was discarded, the ELISA plate was washed three times with 1×PBST, ELISA Chromogen Solution was added at 100 μL/well and incubated for 1-3 minutes at room temperature, ELISA stopping solution was added at 50 μL/well and the absorbance values were read at 450 nm.

[5] = target: T4, human PVRIG protein with mouse IgG2a Fc tag (human; mouse, UniProt Q6DKI7 41-171, limits assumed); assay: flow cytometry, competition: human PVRIG-mouse IgG2a Fc (1 ug/mL) binding to CHO-huCD112 cells
T4 construct: Whole entry named; not shown: mouse IgG2a Fc tag
T4 sequence (looked up): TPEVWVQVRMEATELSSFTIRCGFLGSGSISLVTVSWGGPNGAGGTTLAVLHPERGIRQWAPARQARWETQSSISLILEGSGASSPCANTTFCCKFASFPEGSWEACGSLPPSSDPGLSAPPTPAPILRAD
Experimental: Specifically, CHO cells overexpressing human CD112 (CHO-huCD112 cells) were generated by transfection of the pCHO1.0 vector (purchased from Invitrogen) with cDNA encoding human CD112 cloned into the multiple cloning site (MCS), followed by pressure screening. […] APC-conjugated goat anti-mouse IgG antibody diluted 100-fold with PBS was added at 100 μL/well, incubated at 4° C. for 30 minutes and washed twice with PBS. Cells were resuspended with PBS at 100 μL/well, and detected on a CytoFlex flow cytometer, and the corresponding MFI was calculated.

[6] = target: T5, cynomolgus monkey PVRIG-Fc protein (cynomolgus monkey, UniProt Q6DKI7 41-171 (human entry), limits assumed); assay: BLI (ForteBio), antibody on AHQ sensor, 100 nM Fc antigen, bivalent, 1:1 model
T5 construct: no signal peptide limits stated; Bivalent antigen; also called Cynomolgus PVRIG-hFc; not shown: human Fc (hFc)
T5 chain: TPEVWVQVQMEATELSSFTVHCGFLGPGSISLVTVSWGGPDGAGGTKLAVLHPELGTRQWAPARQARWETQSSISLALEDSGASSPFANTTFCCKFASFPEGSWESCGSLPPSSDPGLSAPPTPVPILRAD
Experimental: The antibody-loaded sensor was continued to be loaded in a high concentration of irrelevant intact antibody for 10 min, saturating the Fc-binding site on the AHQ sensor. The saturated sensor was incubated in 100 nM target antigen to the plateau phase, and then the sensor was transferred to an analysis buffer and incubated for at least 2 minutes for measuring dissociation rate. The kinetic analysis was performed using a 1:1 binding model.

[7] = target: T6, biotin-labeled TIGIT protein (co-binding ELISA) (human, UniProt Q495A1 22-141, biotin-labeled (site not stated)); assay: co-binding (sandwich) ELISA: coated human PVRIG protein, antibody titrated, detected with biotin-labeled TIGIT protein 1 ug/mL and SA-HRP, absorbance 450 nm
T6 construct: Whole entry named; also called human TIGIT protein
T6 sequence (looked up): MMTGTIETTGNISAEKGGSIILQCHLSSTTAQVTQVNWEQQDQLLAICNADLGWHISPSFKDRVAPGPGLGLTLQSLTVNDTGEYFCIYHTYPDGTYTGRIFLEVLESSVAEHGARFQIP

[8] = target: T7, human PVRIG-his protein (human, UniProt Q6DKI7 41-171, limits assumed); assay: BLI (ForteBio), antibody on AHQ sensor, 100 nM antigen, monovalent, 1:1 model
T7 construct: not shown: his tag
T7 sequence: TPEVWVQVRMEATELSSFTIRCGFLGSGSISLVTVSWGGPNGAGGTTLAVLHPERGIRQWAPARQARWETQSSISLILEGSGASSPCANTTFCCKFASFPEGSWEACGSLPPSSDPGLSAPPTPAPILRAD
Experimental: The antibody-loaded sensor was incubated in 100 nM target antigen to the plateau phase, and then the sensor was transferred to an analysis buffer and incubated for at least 2 minutes for measuring dissociation rate. The kinetic analysis was performed using a 1:1 binding model.

EC50 [1]: 3.35 nM | EC50 [2]: 2.54 nM | EC50 [3]: 0.844 nM | IC50 [4]: 0.261 nM | IC50 [5]: 1.06 nM | Kd [6]: 0.267 nM | binding result [7]: no binding (tested: 100 nM) | Kd [8]: 0.144 nM
B1: anti-PVRIG monoclonal antibody ADI-56127 (antibody, V domains shown)
VH: QVQLVQSGAEVKKPGSSVKVSCKASGGTESVDAISWVRQAPGQGLEWMGDIIPFFDTDYAQKFQGRVTITADESTSTAYMELSSLRSEDTAVYYCAREGGTSWTHFFDLWGRGTLVTVSS
VL: not shown
